Common to all, as to assay: purified protein
Substrate in data set [1]: N[C@@H](CCC=O)C(=O)O
It is filed as biochemical, Bacillus subtilis. To be noted: 1 mM NADP+, 100 mM potassium phosphate pH 7.6, room temperature, reverse (dehydrogenase) direction, apparent KM corrected to free GSA aldehyde/hydrate.

Substrate in data set [2]: CC(=O)N[C@@H](CCC=O)C(=O)O
It is filed as biochemical, Bacillus subtilis. Particulars: 1 mM NADP+, 100 mM potassium phosphate pH 7.6, room temperature, reverse (dehydrogenase) direction, promiscuous substrate, apparent KM, NAGSA in equilibrium with its hydrate.

Substrate in data set [3]: N[C@@H](CCC=O)C(=O)O
It is filed as biochemical, Escherichia coli. To be noted: 1 mM NADP+, 100 mM potassium phosphate pH 7.6, room temperature, reverse (dehydrogenase) direction, apparent KM corrected to free GSA aldehyde/hydrate.

Substrate in data set [4]: CC(=O)N[C@@H](CCC=O)C(=O)O
The class given is biochemical, Escherichia coli. Particulars: 1 mM NADP+, 100 mM potassium phosphate pH 7.6, room temperature, reverse (dehydrogenase) direction, promiscuous substrate, apparent KM, NAGSA in equilibrium with its hydrate.

Substrate in data set [5]: N[C@@H](CCC=O)C(=O)O
It is filed as biochemical, Methanosarcina acetivorans. To be noted: 1 mM NADP+, 100 mM potassium phosphate pH 7.6, room temperature, reverse (dehydrogenase) direction, apparent KM corrected to free GSA aldehyde/hydrate.

Substrate in data set [6]: N[C@@H](CCC=O)C(=O)O
The class given is biochemical, Aliivibrio fischeri. To be noted: 1 mM NADP+, 100 mM potassium phosphate pH 7.6, room temperature, reverse (dehydrogenase) direction, apparent KM corrected to free GSA aldehyde/hydrate.

Substrate in data set [7]: CC(=O)N[C@@H](CCC=O)C(=O)O
It is filed as biochemical, Aliivibrio fischeri. To be noted: 1 mM NADP+, 100 mM potassium phosphate pH 7.6, room temperature, reverse (dehydrogenase) direction, promiscuous substrate, apparent KM, NAGSA in equilibrium with its hydrate.

Substrate in data set [8]: N[C@@H](CCC=O)C(=O)O
It is filed as biochemical, Saccharophagus degradans. Particulars: 1 mM NADP+, 100 mM potassium phosphate pH 7.6, room temperature, reverse (dehydrogenase) direction, apparent KM corrected to free GSA aldehyde/hydrate.

Substrate in data set [9]: CC(=O)N[C@@H](CCC=O)C(=O)O
The class given is biochemical, Saccharophagus degradans. To be noted: 1 mM NADP+, 100 mM potassium phosphate pH 7.6, room temperature, reverse (dehydrogenase) direction, promiscuous substrate, apparent KM, NAGSA in equilibrium with its hydrate.

Substrate in data set [10]: N[C@@H](CCC=O)C(=O)O
The class given is biochemical, Pseudomonas putida. To be noted: 1 mM NADP+, 100 mM potassium phosphate pH 7.6, room temperature, reverse (dehydrogenase) direction, apparent KM corrected to free GSA aldehyde/hydrate.

Substrate in data set [11]: CC(=O)N[C@@H](CCC=O)C(=O)O
The class given is biochemical, Pseudomonas putida. To be noted: 1 mM NADP+, 100 mM potassium phosphate pH 7.6, room temperature, reverse (dehydrogenase) direction, promiscuous substrate, apparent KM, NAGSA in equilibrium with its hydrate.

Substrate in data set [12]: N[C@@H](CCC=O)C(=O)O
To be noted: 1 mM NADP+, 100 mM potassium phosphate pH 7.6, room temperature, reverse (dehydrogenase) direction, apparent KM corrected to free GSA aldehyde/hydrate.

Substrate in data set [13]: CC(=O)N[C@@H](CCC=O)C(=O)O
To be noted: 1 mM NADP+, 100 mM potassium phosphate pH 7.6, room temperature, reverse (dehydrogenase) direction, promiscuous substrate, apparent KM, NAGSA in equilibrium with its hydrate.

Where a chain is given by its changes, count along the chain named. In names and notes the source's numbering stands.

B1: Bacillus subtilis ProA (Bacillus subtilis subsp. subtilis str. 168) (protein)
chain: MSEVSVKAKLAKEAAAEMIMKTTAEKDEALSLIANGLRKELDFLLAENAKDIVNGKENGLTPDIIDRLSLDEKRIRDIADAVELLIDLADPIGDSLETIEKENGLFIEKIRVPLGVVGMIYEARPNVTVDAATLCLKTGNAVVLRGSSSAIHSNKALVSVIYRALEQSALPIHAVQLIEDTSRETAKELFTLNDGLDVLIPRGGKKLIDLVVRESTVPVLETGAGNCHIFIDETAKPQMAEKVVVNAKTQRPSVCNAIESLLIHKAWARQHGKELLDQLENAGVEIRGDELVCELHPSSKQASKEDWETEFLAPVLSVKTVENVQEAVKHIQQYGTNHSEAILTENDKNAVYFQTAVDAAAVYHNASTRFTDGFEFGYGAEIGISTQKLHARGPMGLPALTSTKYIIKGTGQIRE
notes: His-tagged, pTrcHisB, expressed in delta-argC delta-proA E. coli BW25113 (DE3)
Consider B1, for which, in “purified protein [1]”, the Michaelis-Menten constant (Km) came out at 150 ± 20 µM, the turnover number (kcat) came to 1.7 ± 0.2 s⁻¹ and the catalytic efficiency (kcat/Km) is 11000 ± 1000 M⁻¹ s⁻¹. Also, in the data set “purified protein [2]”, the Michaelis-Menten constant (Km) was 6000 ± 1500 µM, the kcat came out at 0.0014 ± 0.0003 s⁻¹ and the catalytic efficiency (kcat/Km) came to 0.24 ± 0.015 M⁻¹ s⁻¹.

B2: Bacillus subtilis ProA (Bacillus subtilis subsp. subtilis str. 168; E381A) (protein)
chain: B1 chain with E381A
notes: as for B1
In the case of B2, in the data set “purified protein [2]”, the Km was found to be 46 ± 19 µM, the kcat was 0.0028 ± 0.0004 s⁻¹ and the catalytic efficiency (kcat/Km) was determined as 61 ± 14 M⁻¹ s⁻¹.

B3: E. coli ProA (GP reductase) (Escherichia coli K-12) (protein)
chain: MLEQMGIAAKQASYKLAQLSSREKNRVLEKIADELEAQSEIILNANAQDVADARANGLSEAMLDRLALTPARLKGIADDVRQVCNLADPVGQVIDGGVLDSGLRLERRRVPLGVIGVIYEARPNVTVDVASLCLKTGNAVILRGGKETCRTNAATVAVIQDALKSCGLPAGAVQAIDNPDRALVSEMLRMDKYIDMLIPRGGAGLHKLCREQSTIPVITGGIGVCHIYVDESVEIAEALKVIVNAKTQRPSTCNTVETLLVNKNIADSFLPALSKQMAESGVTLHADAAALAQLQAGPAKVVAVKAEEYDDEFLSLDLNVKIVSDLDDAIAHIREHGTQHSDAILTRDMRNAQRFVNEVDSSAVYVNASTRFTDGGQFGLGAEVAVSTQKLHARGPMGLEALTTYKWIGIGDYTIRA
notes: as for B1
Regarding B3, in the data set “purified protein [3]”, the Michaelis constant (Km) amounted to 43 ± 3 µM, the kcat was determined as 5.1 ± 0.2 s⁻¹ and the kcat/Km was 120000 ± 10000 M⁻¹ s⁻¹. In addition, the Km in “purified protein [4]” was found to be 480 ± 30 µM.

B4: Methanosarcina acetivorans ProA (Methanosarcina acetivorans C2A) (protein)
chain: MAEDIETKVVKAKKASIELSSVSEEVKNRALEAMAESLDRERKAILEANSKDLEYASELKKVGKLTQALVDRLKVTDSKIDGMIAGIMDVIKLKDPVGETLSTLELDNDLILYQISCPIGLIGVIFESRPDVVPQVMSLCLKSGNATIFKGGSEARESNRTIFEILVKAIESTEGMPKGAFQLMETREEIMSLLSLDAYVDLLIPRGSNEFVKFIQDNTKIPVLGHTSGICHIYVDEFADPDTAWKVCFDAKVQYPAVCNAIETLLVNRKIAEAFLPKMAEMYIKAGVELRCDKDSYILLAEKGLSPLSKATEEDWSLEYNDLILSIKLVDTIKEAIAHINTFGSHHTDGIITENASRRKEFIGLVDSSSVMVNASTRFADGYRYGKGAEVGISTNKIHSRGPVGMEGLLIYKYILMGKGQVVADYAGENAKPYTHRKLDLKFADVN
notes: as for B1
B4: in “purified protein [5]”, the Km amounted to 14 ± 4 µM, the kcat stood at 0.43 ± 0.03 s⁻¹ and the kcat/Km came to 25000 ± 11000 M⁻¹ s⁻¹.

B5: Methanosarcina acetivorans ProA (Methanosarcina acetivorans C2A; E390A) (protein)
chain: B4 chain with E390A
notes: as for B1
Consider B5, for which, in “purified protein [5]”, the Michaelis-Menten constant (Km) is 56 ± 28 µM, the kcat amounted to 0.0018 ± 0.0005 s⁻¹ and the kcat/Km was found to be 32 ± 15 M⁻¹ s⁻¹.

B6: Allivibrio fischeri ProA (Aliivibrio fischeri ES114) (protein)
chain: MNLTTMGQAAKAAAFDLAVAPTAQKNKALAIIADELEANKDAILAANEKDIKAAVEAGISEAMQDRLLLTEERLVGIANDVRNVINLNDPVGSEIDSKVLENGMSLSRRRVPIGVIGVIYEARPNVTIDIASLCLKTGNASILRGGKETFFSNMELVKVIQVALEKAGLPAASVQYIEKPDRELVSQLLTMDDYVDMIIPRGGAGLHKMCKENSSIPVIIGGFGISHAFVDESADLERALVVVDNSKAQRPSACNALDTLLVHEAVAPQFLALLANNMAGRVELVAEPKAYGLLKEFEGVSLREAQEGDFDTEWLSYTLGVKVVADVNEAAAHMQKHNASHSDTILTNNIESAEKFINTAGSAAVYVNASTRFTDGAQFGLGAEVAVSTQKLHARGPMGLEELTSYKWVGKADYLIRS
notes: as for B1
For B6, in the data set “purified protein [6]”, the Km is 46 ± 11 µM, the kcat was found to be 1.9 ± 0.2 s⁻¹ and the catalytic efficiency (kcat/Km) was 42000 ± 6000 M⁻¹ s⁻¹.

B7: Allivibrio fischeri ProA (Aliivibrio fischeri ES114; E384A) (protein)
chain: B6 chain with E384A
notes: as for B1
Consider B7, for which, in “purified protein [7]”, the Michaelis constant (Km) worked out at 65 ± 23 µM.

B8: Saccharophagus degradans ProA (Saccharophagus degradans 2-40) (protein)
chain: MTVQDYMLTLGKQARAASRQMASADTGKKNAALLAIADAINSARDTIAAENARDMEAGRANGLDAALLDRLELTPERIDGMIEGLNQVAALPDPCGEITDLKYRPSGIQLGKKRTPLGVVGIIYESRPNVTVDAASLCLKSGNAAILRGGSEAIHSNKAVAVCIAAGLKAAGLPETAVQVVETTDRAAVGELITMTKYVDVVVPRGGKSLIERISADARVSVIKHLDGICHVYVDKTANLDKAFNIVINSKTHRYGVCNAMETMLVDEAIAADFLPRAAKEFAARGVELRGCEKTVALLTASDIPVVAALEEDWDTEYLAPILSIKLVANMDEAIEHINNHGSHHTDALVSENYTLARKFLTEVDSSSVMINASTRFADGFEYGLGAEIGISTDKIHARGPVGLEGLTSQKWIVFGDGHIRN
notes: as for B1
Consider B8, for which, in the data set “purified protein [8]”, the Michaelis constant (Km) was found to be 85 ± 13 µM, the kcat amounted to 0.4 ± 0.04 s⁻¹ and the specificity constant (kcat/Km) worked out at 4700 ± 400 M⁻¹ s⁻¹. Besides, in “purified protein [9]”, the Km is 820 ± 160 µM, the kcat amounted to 3e-05 ± 3e-06 s⁻¹ and the kcat/Km amounted to 0.037 ± 0.004 M⁻¹ s⁻¹.

B9: Pseudomonas putida ProA (Pseudomonas putida KT2440) (protein)
chain: MTESVLDYMTRLGRAAREASRVIGRASTAQKNRALQAAADALDAARAELTAANELDLAAGRASGLEPALLDRLALTPARIDGMITGLRQVASLPDPVGAIRDMSYRPSGIQVGKMRTPLGVIGIIYESRPNVTIDAASLCLKSGNATILRGGSEAIHSNRAIATCIQRGLAEAGLPAAVVQVVETTDREAVGALISMPEFVDVIVPRGGRGLIERISRDARVPVIKHLDGICHIYVSQHADLDKAWNVAFNAKTYRYGICGAMETLLVDQQVAERFLPEMARRFVEKGVELRGCERTQAIISAKPATEADWHTEYLDAILSIRVVDGLNQAIEHINHYGSHHTDSIISEHQGEARQFMAEVDSASVMLNTPTCFADGFEYGLGAEIGISTDKLHARGPVGLEGLTCEKYVVIGDGQLRGQGSC
notes: as for B1
Turning to B9, in “purified protein [10]”, the Km stood at 140 ± 90 µM, the turnover number (kcat) was found to be 0.74 ± 0.23 s⁻¹ and the catalytic efficiency (kcat/Km) was 6100 ± 1700 M⁻¹ s⁻¹. In “purified protein [11]”, the Km was 5200 ± 1900 µM, the turnover number (kcat) worked out at 0.001 ± 0.0003 s⁻¹ and the catalytic efficiency (kcat/Km) is 0.15 ± 0.055 M⁻¹ s⁻¹.

B10: Salmonella enterica ProA (Salmonella enterica subsp. enterica serovar Typhimurium str. LT2) (protein)
chain: MLEQMGIAAKAASYKLALLSSGEKNRVLEKIADELEAQMESILSANVQDVEQARANGLSEAMLDRLALTPARLKAIADDVRQVCNLADPVGQVIDGGLLDSGLRLERRRVPLGVVGVIYEARPNVTVDVASLCLKTGNAVILRGGKETYRTNAATVRVIQKALKACGLPEAAVQAIDNPDRSLVNEMLRMDKYIDMLIPRGGAGLHKLCREQSTIPVITGGIGVCHIFVDSSADIAPALKIIVNAKTQRPSTCNTVETLLVHQDIAERFLPALSKQMAESGVTLHGDETVMQVLHGPAKLVPLKPEELDNEFLSLDLNVVVVENMDGAIAHIREHGTQHSDAILTCDMHNAARFVNEVDSAAVYVNASTRFTDGGQFGLGAEVAVSTQKLHARGPMGLEALTTYKWIGFGDGTIRA
In the case of B10, in the data set “purified protein [12]”, the Km was 54 ± 12 µM, the kcat was found to be 3.7 ± 0.5 s⁻¹ and the specificity constant (kcat/Km) was found to be 69000 ± 7000 M⁻¹ s⁻¹. Besides, the Km in “purified protein [13]” came out at 2600 ± 100 µM.

The Km is the substrate concentration at which the rate is half of its maximum. A word on the kcat: it is the number of substrate molecules converted per active site and unit of time at saturation. The kcat/Km is the second-order rate constant that governs catalysis at low substrate concentration.

Values taken from article PMC4271523, “Differential Effects of a Mutation on the Normal and Promiscuous Activities of Orthologs: Implications for Natural and Directed Evolution” (Molecular Biology and Evolution, 2014).
